Measured values from patent publication EP4467153A1, “CONSTRAINED PEPTIDE INHIBITORS OF LRRK2-FADD INTERACTIONS” (University of Georgia Research Foundation, Inc., priority 2023, dated 2024).
“Also recorded” adds a separate entry of the source. Positions of bridges follow the written chain, without caps; N, C: chain ends. Non-standard residues stand in square brackets, D forms with d. Primed or numbered codes have the meaning given here. FAM = 5(6)-carboxyfluorescein label; S5 = C=CCCC[C@](C)(N)C(=O)O; PEG3′ = PEG3 spacer

Key:
[1] = target: T1, R1441C-LRRK2 (Homo sapiens, UniProt Q5S007, R1441C); assay: LRRK2 kinase function in HEK293T cells over-expressing R1441C-LRRK2, endogenous Rab10 (western blot); format: cell-based; settings: increasing doses of peptide
T1 construct: expressed in transfected cells; host or cells: HEK293T
Protocol: Assessment of LRRK2 kinase function. To determine whether peptides targeting the LRRK2-FADD PPI could also alter kinase function, LRRK2 activity was assessed in a cellular setting, through the phosphorylation of an endogenous substrate (pT73-Rab10), as well as auto-phosphorylation (pS1292-LRRK2). […] Parallel cultures were transfected with only WT or R1441C-LRRK2; and endogenous levels of phosphorylated RablO were assessed. Following 72hr of total expression, the cells were washed in cold PBS and collected. Cell lysis was performed using the following buffer: 50mM Tris HCl, pH 7.5; 1mM EGTA; 0.27 M sucrose; 1% Triton X-100; supplemented with protease and phosphatase inhibitor cocktails, and cell extracts stored at -80°C until use. The extracts were separated by SDS-PAGE and proteins transferred to nitrocellulose membranes, which were probed for total/pS1292-LRRK2, total/pT73-Rab10, or β-actin. For quantification, the band intensities for phosphorylated Rab 10 or LRRK2 were normalized to total expression of the respective protein.

[2] = target: T2, LRRK2-FADD PPI (Flag G2019S-LRRK2 and V5-FADD) (Homo sapiens, UniProt Q5S007, G2019S); assay: Co-immunoprecipitation of LRRK2-FADD interaction in transfected HEK293T cells; format: cell-based
T2 construct: expressed in transfected cells; host or cells: HEK293T
Protocol: It was then assessed whether this peptide library (FARM1-FARM5) could disrupt the interaction between over-expressed Flag G2019S-LRRK2 and V5-FADD by co-immunoprecipitation. Flag-LRRK2 was purified on anti-Flag resin and the eluate as well as the protein extract (input) separated by SDS-PAGE, with the membranes probed for V5 (FADD) and Flag (LRRK2). The transfected cells were treated with the indicated peptide (10 µM) for a total of 48 hr prior to collection. […] To minimize the use of primary mouse cortical neuron cultures, FARMS was used in subsequent experiments to examine the potential neuroprotective effects of LRRK2-FADD disruption.
Assessment of LRRK2-FADD interaction. Co-immunoprecipitation was undertaken to determine the effects of the stapled peptides on the LRRK2-FADD PPI, as previously described. Briefly, 10cm plates of HEK293T cells transiently expressing Flag-WT or mutant LRRK2 and V5-FADD (at a 3:1 ratio), and treated with different concentrations of FARM peptides (as indicated in the Figure legends), were washed in PBS and lysed in co-IP buffer (20mM HEPES, pH7.4; 150 mM NaCl; 0.1% NP40; 2 mM EGTA; 2 mM MgCl2; 10% glycerol, pH 7.2; protease and phosphatase cocktail [Agilent Technologies]) for 30 min on ice followed by 15 strokes with a Dounce glass homogenizer, and centrifugation at 13000 rpm for 15 min to remove cellular debris. Following pre-clearing with IgG-coupled beads, 40 µl of washed anti-Flag resin (Sigma-Aldrich) per mg of protein was added and the samples incubated under rotation overnight at 4°C. The following morning, the beads were centrifuged and washed a total of 5X with coIP buffer, before elution in 2X SDS sample buffer at 95°C for 10 min. The eluate (and input) was separated by SDS-PAGE and membranes probed with anti-Flag (LRRK2) and V5 (FADD).

[3] = test system: primary cortical neurons expressing G2019S-LRRK2; assay: Assessment of neuronal death (apoptotic nuclear features of transfected neurons); format: cell-based, mouse; settings: 48hr treatment, vs vehicle
Text: Disruption of the LRRK2-FADD PPI is neuroprotective. It has been previously shown that over-expression of mutant LRRK2 (G2019S or other pathogenic mutations) in primary cortical neurons results in apoptotic death of the neurons (see Iaccarino C, Crosio C, Vitale C, Sanna G, Carri MT, Barone P (2007) Apoptotic mechanisms in mutant LRRK2-mediated cell death. Hum Mol Genet 16, 1319-1326); and this example continues this area of identifying pathway(s) underlying cell-autonomous neuronal death in models of LRRK2-PD. […] Disruption of this interaction by dominant negative fragments of both FADD and LRRK2, or by deletion of the predicted FADD-binding domain within LRRK2, is neuroprotective against over-expression of mutant LRRK2. To determine whether FARMS could effectively disrupt the apoptotic death of primary neurons induced by pathogenic LRRK2, mouse embryonic cortical neurons were transiently transfected with G2019S-LRRK2 and increasing concentrations of the FARMS peptide were added. In cultures of neurons expressing G2019S-LRRK2, apoptotic Flag-positive neurons with characteristic fragmented and condensed nuclear apoptotic features, were observed as has been reported previously. […] A third neuron is visible within this field (with a condensed nucleus), however it is not expressing Flag-LRRK2, so would not be included in the assessment of neuronal death. the dose response of neuroprotection of FARMS was determined by counting the percentage of transfected neurons (stained with anti-Flag antibodies).
Assessment of Neuronal Death. […] Cells were centrifuged and counted and plated on poly-D-lysine coated glass coverslips at a density of 150,000/cm^2 in BrainPhys neuronal culture medium (StemCell Technologies) supplemented with SM1 Neuronal Supplement (StemCell Technologies), L-glutamine (0.5 mM) and […]. […] For quantification of apoptotic neuronal profiles, we used the approach described by Antoniou and colleagues. Briefly, individual Flag-positive neurons were assessed by a research blinded to the experimental conditions.

T2 sequence (Q5S007 whole entry G2019S): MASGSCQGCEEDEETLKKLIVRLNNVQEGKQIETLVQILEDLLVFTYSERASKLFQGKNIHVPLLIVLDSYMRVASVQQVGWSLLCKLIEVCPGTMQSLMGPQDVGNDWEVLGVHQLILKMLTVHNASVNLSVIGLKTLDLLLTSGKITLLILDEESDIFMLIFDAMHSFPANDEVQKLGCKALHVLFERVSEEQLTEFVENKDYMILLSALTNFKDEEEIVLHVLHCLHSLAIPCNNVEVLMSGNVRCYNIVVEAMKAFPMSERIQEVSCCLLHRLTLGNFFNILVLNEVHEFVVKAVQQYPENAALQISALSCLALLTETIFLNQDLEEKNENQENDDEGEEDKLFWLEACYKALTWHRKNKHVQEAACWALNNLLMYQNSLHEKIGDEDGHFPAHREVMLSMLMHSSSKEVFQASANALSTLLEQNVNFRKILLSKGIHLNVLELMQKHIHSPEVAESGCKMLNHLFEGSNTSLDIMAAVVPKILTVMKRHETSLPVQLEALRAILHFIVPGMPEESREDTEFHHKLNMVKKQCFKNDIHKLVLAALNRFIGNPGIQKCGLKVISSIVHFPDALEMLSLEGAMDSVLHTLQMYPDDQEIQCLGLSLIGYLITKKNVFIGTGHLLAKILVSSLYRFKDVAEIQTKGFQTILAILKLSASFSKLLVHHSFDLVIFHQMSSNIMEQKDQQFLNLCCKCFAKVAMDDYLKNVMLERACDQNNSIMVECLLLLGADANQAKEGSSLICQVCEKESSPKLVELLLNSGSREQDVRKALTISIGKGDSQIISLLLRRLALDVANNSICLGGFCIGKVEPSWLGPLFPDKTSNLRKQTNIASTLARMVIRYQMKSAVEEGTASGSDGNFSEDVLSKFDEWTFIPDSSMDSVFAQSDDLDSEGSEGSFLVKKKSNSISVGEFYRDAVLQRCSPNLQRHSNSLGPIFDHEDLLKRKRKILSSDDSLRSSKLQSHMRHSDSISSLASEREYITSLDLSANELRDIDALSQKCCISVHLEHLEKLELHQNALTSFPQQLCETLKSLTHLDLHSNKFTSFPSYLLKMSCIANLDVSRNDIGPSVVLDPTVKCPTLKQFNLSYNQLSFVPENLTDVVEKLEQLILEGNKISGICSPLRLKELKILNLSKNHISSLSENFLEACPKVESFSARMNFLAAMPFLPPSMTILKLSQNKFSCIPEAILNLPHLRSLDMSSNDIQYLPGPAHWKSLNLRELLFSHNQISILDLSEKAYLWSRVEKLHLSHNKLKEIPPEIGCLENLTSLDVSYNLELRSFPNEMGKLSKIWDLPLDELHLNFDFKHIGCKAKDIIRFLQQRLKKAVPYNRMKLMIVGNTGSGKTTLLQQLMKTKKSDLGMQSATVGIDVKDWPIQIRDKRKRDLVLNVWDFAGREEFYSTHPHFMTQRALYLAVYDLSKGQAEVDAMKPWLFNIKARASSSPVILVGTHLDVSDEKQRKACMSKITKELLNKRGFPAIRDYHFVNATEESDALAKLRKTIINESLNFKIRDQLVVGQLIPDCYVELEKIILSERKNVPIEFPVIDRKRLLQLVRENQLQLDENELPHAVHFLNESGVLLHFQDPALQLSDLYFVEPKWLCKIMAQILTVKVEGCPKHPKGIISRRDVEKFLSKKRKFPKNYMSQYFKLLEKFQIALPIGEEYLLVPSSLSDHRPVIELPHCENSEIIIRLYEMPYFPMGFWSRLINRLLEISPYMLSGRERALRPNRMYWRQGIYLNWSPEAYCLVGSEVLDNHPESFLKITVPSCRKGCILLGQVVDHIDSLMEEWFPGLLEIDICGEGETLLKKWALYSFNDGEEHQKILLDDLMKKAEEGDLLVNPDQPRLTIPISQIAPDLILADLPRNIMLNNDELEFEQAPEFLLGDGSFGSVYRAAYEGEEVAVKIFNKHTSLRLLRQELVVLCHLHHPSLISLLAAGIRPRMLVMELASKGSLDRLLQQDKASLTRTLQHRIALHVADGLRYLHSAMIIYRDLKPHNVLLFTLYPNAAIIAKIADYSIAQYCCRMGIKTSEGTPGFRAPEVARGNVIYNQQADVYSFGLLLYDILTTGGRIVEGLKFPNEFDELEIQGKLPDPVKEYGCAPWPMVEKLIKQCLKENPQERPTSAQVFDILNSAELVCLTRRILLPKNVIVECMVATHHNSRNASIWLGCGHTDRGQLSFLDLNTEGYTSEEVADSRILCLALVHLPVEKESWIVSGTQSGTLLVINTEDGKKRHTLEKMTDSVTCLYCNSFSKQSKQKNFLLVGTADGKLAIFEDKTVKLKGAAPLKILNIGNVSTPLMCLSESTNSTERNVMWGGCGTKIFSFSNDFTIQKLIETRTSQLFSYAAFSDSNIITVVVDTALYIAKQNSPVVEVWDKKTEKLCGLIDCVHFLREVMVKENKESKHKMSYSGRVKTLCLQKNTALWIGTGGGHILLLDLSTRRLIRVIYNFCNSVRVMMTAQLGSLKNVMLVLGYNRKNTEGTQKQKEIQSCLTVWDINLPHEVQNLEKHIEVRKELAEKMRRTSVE
T1 sequence (Q5S007 whole entry R1441C): as the sequence (Q5S007 whole entry G2019S) above, with R1441C, S2019G counted along it

**Q.** How did the “phosphorylation of endogenous Rab10 (pT73) by R1441C-LRRK2” value [1] turn out when “FARM5: FAM-labeled hydrocarbon-stapled FADD Armadillo domain peptide; mass fits SEQ ID NO. 6 KVADLVQEVQQAXDLQXRSK ({FAM-PEG3′}-KVADLVQEVQQA[S5]DLQ[S5]RSK-NH2; staple 13-17; also: FAM label, optionally 5(6)FAM-PEG3 on N-terminal lysine) [FAM-labeled hydrocarbon-stapled FADD Armadillo domain peptide; 6 …XDLQXRSK]” was run?
**A.** un-affected

**Q.** What about the “amount of FADD that co-purified with G2019S-LRRK2 (LRRK2-FADD interaction)” value ([2]; 10 µM, 48 hr, normalized to immunoprecipitated Flag-LRRK2, listed as FARMS) of the same substance?
**A.** greatest, and most consistent, reduction; also recorded: reduced the interaction between LRRK2 and FADD

**Q.** What about the “dose-dependency of the disruption of the LRRK2-FADD PPI” value ([2]; 0.1 to 10 µM, 24hr) of the same substance?
**A.** progressive reduction in the LRRK2-FADD PPI with increasing doses

**Q.** What about the “percentage of neurons with apoptotic profiles” value (shortened to “percentage of neurons”) ([3]; 0.1 µM) of the same substance?
**A.** unable to significantly block apoptotic neuronal death

**Q.** And the “percentage of neurons” value ([3]; 1 µM, listed as FARMS)?
**A.** significantly reduced; also recorded: reduced evidence of chromatin condensation

**Q.** What about the “percentage of neurons” value ([3]; 10 µM, listed as FARMS) of the same substance?
**A.** significantly reduced; also recorded: restored neuronal death to WT levels
